Data: patent publication US20240115527A1, “CXCR1/CXCR2 INHIBITORS FOR USE IN TREATING MYELOFIBROSIS” (Icahn School of Medicine at Mount Sinai, priority 2020, published 2024)

Experiments:
Type in all cases: cell-based, human
[1] = system: MF CD34+ cells co-cultured with splenic EC; assay: Proliferation of MF CD34+ cells co-cultured with LCN2 treated splenic endothelial cells; conditions: FIG. 4B
Source text: FIGS. 4A and 4B illustrate that addition of a CXCR1/CXCR2 inhibitor reverses effects of IL-8 on MF CD34^+ cells proliferation and lineage differentiation. FIG. 4A illustrates that IL-8 decreased the fraction of normal CD34^+, CD41^+, and CD33^+ cells, but increased the fraction of MF CD34^+, CD41^+, and CD33^+ cells. The effects of IL-8 were eliminated by the addition of the CXCR1/CXCR2 inhibitor ladarixin (Ladx). Normal CD34/CD41/CD33: left bars. MF CD34/CD41/CD33: Right bars. FIG. 4B illustrates that splenic endothelial cells (ECs) promote the proliferation of hematopoietic CD34^+ cells. Shown is fold change in CD34^+ cells cultured alone in the absence of cytokines and that the numbers are increased when the CD34^+ cells were co-cultured with LCN2 treated endothelial cells. The effects of co-cultivation with ECs were eliminated by addition of the CXCR1/CXCR2 antagonist reparixin (RPX).
Similarly, while treatment with LCN2 enhances endothelial cell (EC)-mediated proliferation of MF cells, treatment with the CXCR1/CXCR2 inhibitor reparixin decreased MF CD34^+ proliferation when co-cultured with splenic EC (FIG. 4B).

MF CD34+ cells = assay: Colony forming assay (CFU-GM) of cultured MF CD34+ cells with IL-8; conditions: co-treatment with reparixin, FIG. 5A
Source text: FIGS. 5A, 5B. 5C, 5D, and 5E illustrate that a CXCR1/CXCR2 inhibitor reverses effects of IL-8 on MF CD34^+ cell colony formation. […] CFU-GM=colony-forming unit-granulocyte-macrophage. FIGS. 5B and 5C illustrate that IL-8 increased CFU-GM colony formation by MF CD34^+ cells in a dose dependent fashion and that the effects of IL-8 were inhibited by treatment with Ladx. FIG. 5B. Normal cells. FIG. 5C. MF cells. […] Con=control. IL-8 concentrations increase from left to right. […] P values were as follows: w/o Ladx: Con vs IL-8—10 ng: 0.159332; Con vs IL-8—20 ng: 0.011976; Con vs IL-8—50 ng: 0.00262; Con vs IL-8—100 ng: 0.00042; w/ 10 μM Ladx: Con vs Ladx: 0.315782; IL-8—10 ng vs plus Ladx: 0.295851; IL-8—20 ng vs plus Ladx: 0.077726; IL-8—50 ng vs plus Ladx: 0.031355; IL-8—100 ng vs plus Ladx: 0.081595.

[2] = system: normal splenic stromal cells; assay: IL-8 and CXCL1 mRNA and protein levels in normal splenic stromal cells treated with LCN2; conditions: treatment with LCN2, FIGS. 3A and 3B
Source text: FIGS. 3A, 3B, and 3C illustrate that reduction of IL-8 blocks VEGF, which is involved in the development of splenic endothelial cells (EC)/MF HSC niches. FIGS. 3A and 3B illustrate that LCN2 increases IL-8 and CXCL1 protein and mRNA levels in spleen stromal cells. Con: left bars. LCN2: right bars. FIG. 3C illustrates that IL-8 regulates VEGF expression. si=silencing. Ab=antibody. Con=control.
Lipocalin2 (LCN2) is a cytokine produced by MF marrow myeloid cells. Levels of LCN2 are 2-3 fold greater in the circulation of MF patients as compared to PV and ET patients and even higher as compared to healthy controls. […] IL-8 and the related chemokine CXCL1 are pro-angiogenic creating a cascade of cytokines (VEGF) contributing to the development of splenic EC/MF HSC niches. […] The positive impact of IL-8 on VEGF expression was blocked by an IL-8 neutralizing antibody.

Row | Molecule | MF CD34+ proliferation when co-cultured with splenic EC ([1]; reparixin added to co-culture) | effect on IL-8 enhanced colony output of MF CD34+ cells (MF CD34+ cells) | endothelial cell (EC)-mediated proliferation of MF cells ([1]; LCN2 treated endothelial cells) | CXCL1 mRNA and protein levels [2] | IL-8 mRNA and protein levels [2]
1 | CC(C)Cc1ccc([C@@H](C)C(=O)NS(C)(=O)=O)cc1 [reparixin, R-(-)-2-(4-isobutylphenyl)-N-methanesulfonyl propionamide] | decreased | ameliorated |  |  | 
2 | LCN2: Lipocalin2 (LCN2) is a cytokine produced by MF marrow myeloid cells (protein, UniProt P80188 21-198, looked up) Neutrophil …: QDSTSDLIPAPPLSKVPLQQNFQDNQFQGKWYVVGLAGNAILREDKDPQKMYATIYELKEDKSYNVTSVLFRKKKCDYWIRTFVPGCQPGEFTLGNIKSYPGLTSYLVRVVSTNYNQHAMVFFKKVSQNREYFKITLYGRTKELTSELKENFIRFSKSLGLPENHIVFPVPIDQCIDG |  |  | enhances | significant increase | significant increase
